Measurements taken from publication doi:10.1101/2021.11.20.466133 (bioRxiv, 2021).

Biological target: the molecule itself
Test: SEC-MALS

B1: Mycobacterium smegmatis c-di-AMP hydrolase (phosphodiesterase) MsPDE (enzyme)
chain: MPVTTTDPKTGLLTGPDAQIAGARVDARGAADLLTAASSVSVICHVYPDADTIGAGLALAQVLAASGKHVEVSFATPAQLPESLQSLPGGHLLVAPEAMRRDADLVVTVDIPSINRLGALSGLAGPGREVLVIDHHASNQLFGTANYIDPSADSTTMLVAELLDAWGKPIDEKVAHCLYAGLTTDTGSFRWATARAHRLAARLVELGVDNASISRTLLDTHPFAWLPMLSRVLATARLLPDALDGRGFVYAVVPHDEWSEARPEEVESIVDIVRTTQQAEVAAVFKEIEPMHWSVSMRAKSVNLASVASAFGGGGHPHAAGYSATGSADDVVQALARALG
- stoichiometry N: 2
